Laboratory results from patent publication US20240360194A1, “New Peptides as Potent and Selective GIP Receptor Agonists” (Sanofi, priority 2021, published 2024).
Numbered stars: 1 amine (or outer) side, 2 acyl side, 3 side chain; on linkers, the order of the positions; unused ones are H or OH. Square brackets hold non-standard residues; d marks the D form. Side chains are listed from the residue outwards. Ends that are not written are not given here. * marks the point of attachment. C18 diacid = O=C(O)CCCCCCCCCCCCCCCCC(=O)*; γGlu = O=C(O)[C@H](CCC(=O)[*:2])N[*:1]; αMeF = C[C@](N)(Cc1ccccc1)C(=O)O; hLeu = CC(C)CC[C@H](N)C(=O)O; Iva = CC[C@](C)(N)C(=O)O; Abu = CC[C@H](N)C(=O)O; AEEA = NCCOCCOCC(=O)O; Aib = CC(C)(N)C(=O)O

T1: human GIP receptor (human, UniProt P48546 22-466)
T1 sequence (looked up): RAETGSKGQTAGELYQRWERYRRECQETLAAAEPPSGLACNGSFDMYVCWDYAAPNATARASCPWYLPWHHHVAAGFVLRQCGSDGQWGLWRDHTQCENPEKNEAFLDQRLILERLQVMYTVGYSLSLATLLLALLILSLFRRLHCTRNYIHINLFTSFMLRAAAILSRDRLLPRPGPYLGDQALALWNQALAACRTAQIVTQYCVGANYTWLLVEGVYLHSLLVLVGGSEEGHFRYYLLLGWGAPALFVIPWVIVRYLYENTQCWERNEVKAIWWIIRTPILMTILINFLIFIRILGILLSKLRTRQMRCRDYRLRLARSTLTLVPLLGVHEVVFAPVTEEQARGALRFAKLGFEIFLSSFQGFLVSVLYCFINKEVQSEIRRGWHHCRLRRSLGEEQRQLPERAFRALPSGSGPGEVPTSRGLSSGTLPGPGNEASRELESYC


How the values were obtained:
human GLP-1 receptor [1] = molecular target: T2, human GLP-1 receptor (human, UniProt P43220 24-463); assay: displacement of [125I]GLP-1 from HEK-293 membranes expressing hGLP-1R (SPA beads)
T2 construct: whole, on cells; also called hGLP-1R; hGLP-1 R

human GIP receptor [2] = molecular target: T1, human GIP receptor; assay: cell-based or functional assay
human GLP-1 receptor [3] = molecular target: T2, human GLP-1 receptor; assay: cell-based or functional assay
human GIP receptor [4] = molecular target: T1, human GIP receptor; assay: cell-based or functional assay; remark: listed apart in the source

Row | Binder | IC50 (human GLP-1 receptor [1]) [nM] | EC50 hGIPR 0% HSA (cAMP, HEK-293) (human GIP receptor [2]) [nM] | EC50 hGIPR 0.1% BSA (cAMP, HEK-293) (human GIP receptor [2]) [nM] | EC50 hGLP-1R 0.1% BSA (cAMP, HEK-293) (human GLP-1 receptor [3]) [nM] | hGIPR EC50 (cAMP, human adipocytes) (human GIP receptor [4]) [nM] | hGIPR Emax (cAMP, human adipocytes) (human GIP receptor [4]) [%]
1 | H-Y[Aib]EGTFISDLSI[Aib]K([AEEA-AEEA-γGlu-C18 diacid])DRIHQEE[αMeF]IEWLLAQGPSSGAPPPS-NH2 (SMILES CC[C@H](C)[C@H](NC(=O)[C@H](CCCNC(=N)N)NC(=O)[C@H](CC(=O)O)NC(=O)[C@H](CCCCNC(=O)COCCOCCNC(=O)COCCOCCNC(=O)CC[C@H](NC(=O)CCCCCCCCCCCCCCCCC(=O)O)C(=O)O)NC(=O)C(C)(C)NC(=O)[C@@H](NC(=O)[C@H](CO)NC(=O)[C@H](CC(C)C)NC(=O)[C@H](CC(=O)O)NC(=O)[C@H](CO)NC(=O)[C@@H](NC(=O)[C@H](Cc1ccccc1)NC(=O)[C@@H](NC(=O)CNC(=O)[C@H](CCC(=O)O)NC(=O)C(C)(C)NC(=O)[C@@H](N)Cc1ccc(O)cc1)[C@@H](C)O)[C@@H](C)CC)[C@@H](C)CC)C(=O)N[C@@H](Cc1c[nH]cn1)C(=O)N[C@@H](CCC(N)=O)C(=O)N[C@@H](CCC(=O)O)C(=O)N[C@@H](CCC(=O)O)C(=O)N[C@@](C)(Cc1ccccc1)C(=O)N[C@H](C(=O)N[C@@H](CCC(=O)O)C(=O)N[C@@H](Cc1c[nH]c2ccccc12)C(=O)N[C@@H](CC(C)C)C(=O)N[C@@H](CC(C)C)C(=O)N[C@@H](C)C(=O)N[C@@H](CCC(N)=O)C(=O)NCC(=O)N1CCC[C@H]1C(=O)N[C@@H](CO)C(=O)N[C@@H](CO)C(=O)NCC(=O)N[C@@H](C)C(=O)N1CCC[C@H]1C(=O)N1CCC[C@H]1C(=O)N1CCC[C@H]1C(=O)N[C@@H](CO)C(N)=O)[C@@H](C)CC, Synthetic peptide, 39 residues) [SEQ ID NO: 32] | 650 | 0.00096 | 0.119 | > 10 | 0.6 | 109
2 | H-Y[Aib]EGTFISDLSI[Aib]K([AEEA-AEEA-γGlu-C18 diacid])DRIHQ[Aib]EFIEW[Iva]LAQGPSSGAPPPS-NH2 (Synthetic peptide, 39 residues) [SEQ ID NO: 31] | 292 | 0.00015 | 0.00696 | > 10 | 0.7 | 121
3 | H-Y[Aib]EGT[Abu]ISDLSI[Aib]K([AEEA-AEEA-γGlu-C18 diacid])DRIHQEEFIEWLLAQGPSSGAPPPS-NH2 (SMILES CC[C@H](NC(=O)[C@@H](NC(=O)CNC(=O)[C@H](CCC(=O)O)NC(=O)C(C)(C)NC(=O)[C@@H](N)Cc1ccc(O)cc1)[C@@H](C)O)C(=O)N[C@H](C(=O)N[C@@H](CO)C(=O)N[C@@H](CC(=O)O)C(=O)N[C@@H](CC(C)C)C(=O)N[C@@H](CO)C(=O)N[C@H](C(=O)NC(C)(C)C(=O)N[C@@H](CCCCNC(=O)COCCOCCNC(=O)COCCOCCNC(=O)CC[C@H](NC(=O)CCCCCCCCCCCCCCCCC(=O)O)C(=O)O)C(=O)N[C@@H](CC(=O)O)C(=O)N[C@@H](CCCNC(=N)N)C(=O)N[C@H](C(=O)N[C@@H](Cc1c[nH]cn1)C(=O)N[C@@H](CCC(N)=O)C(=O)N[C@@H](CCC(=O)O)C(=O)N[C@@H](CCC(=O)O)C(=O)N[C@@H](Cc1ccccc1)C(=O)N[C@H](C(=O)N[C@@H](CCC(=O)O)C(=O)N[C@@H](Cc1c[nH]c2ccccc12)C(=O)N[C@@H](CC(C)C)C(=O)N[C@@H](CC(C)C)C(=O)N[C@@H](C)C(=O)N[C@@H](CCC(N)=O)C(=O)NCC(=O)N1CCC[C@H]1C(=O)N[C@@H](CO)C(=O)N[C@@H](CO)C(=O)NCC(=O)N[C@@H](C)C(=O)N1CCC[C@H]1C(=O)N1CCC[C@H]1C(=O)N1CCC[C@H]1C(=O)N[C@@H](CO)C(N)=O)[C@@H](C)CC)[C@@H](C)CC)[C@@H](C)CC)[C@@H](C)CC, Synthetic peptide, 39 residues) [SEQ ID NO: 25] | 417 | 0.00028 | 0.0144 | > 10 | 0.2 | 112
4 | Y[Aib]EGTFISDLSI[Aib]K([AEEA-AEEA-γGlu-C18 diacid])DRIHQEEFIEWLLAQEPSSGAPPPS-OH (N-terminus assumed; SMILES CC[C@H](C)[C@H](NC(=O)[C@H](Cc1ccccc1)NC(=O)[C@H](CCC(=O)O)NC(=O)[C@H](CCC(=O)O)NC(=O)[C@H](CCC(N)=O)NC(=O)[C@H](Cc1c[nH]cn1)NC(=O)[C@@H](NC(=O)[C@H](CCCNC(=N)N)NC(=O)[C@H](CC(=O)O)NC(=O)[C@H](CCCCNC(=O)COCCOCCNC(=O)COCCOCCNC(=O)CC[C@H](NC(=O)CCCCCCCCCCCCCCCCC(=O)O)C(=O)O)NC(=O)C(C)(C)NC(=O)[C@@H](NC(=O)[C@H](CO)NC(=O)[C@H](CC(C)C)NC(=O)[C@H](CC(=O)O)NC(=O)[C@H](CO)NC(=O)[C@@H](NC(=O)[C@H](Cc1ccccc1)NC(=O)[C@@H](NC(=O)CNC(=O)[C@H](CCC(=O)O)NC(=O)C(C)(C)NC(=O)[C@@H](N)Cc1ccc(O)cc1)[C@@H](C)O)[C@@H](C)CC)[C@@H](C)CC)[C@@H](C)CC)C(=O)N[C@@H](CCC(=O)O)C(=O)N[C@@H](Cc1c[nH]c2ccccc12)C(=O)N[C@@H](CC(C)C)C(=O)N[C@@H](CC(C)C)C(=O)N[C@@H](C)C(=O)N[C@@H](CCC(N)=O)C(=O)N[C@@H](CCC(=O)O)C(=O)N1CCC[C@H]1C(=O)N[C@@H](CO)C(=O)N[C@@H](CO)C(=O)NCC(=O)N[C@@H](C)C(=O)N1CCC[C@H]1C(=O)N1CCC[C@H]1C(=O)N1CCC[C@H]1C(=O)N[C@@H](CO)C(=O)O, Synthetic peptide, 39 residues (Glu at 30)) [SEQ ID NO: 28] | 426 | 0.00073 | 0.0647 | > 10 | 0.5 | 103
5 | H-Y[Aib]EGTFISD[hLeu]SI[Aib]K([AEEA-AEEA-γGlu-C18 diacid])DRIHQEEFIEWLLAQGPSSGAPPPS-NH2 (SMILES CC[C@H](C)[C@H](NC(=O)[C@H](Cc1ccccc1)NC(=O)[C@H](CCC(=O)O)NC(=O)[C@H](CCC(=O)O)NC(=O)[C@H](CCC(N)=O)NC(=O)[C@H](Cc1c[nH]cn1)NC(=O)[C@@H](NC(=O)[C@H](CCCNC(=N)N)NC(=O)[C@H](CC(=O)O)NC(=O)[C@H](CCCCNC(=O)COCCOCCNC(=O)COCCOCCNC(=O)CC[C@H](NC(=O)CCCCCCCCCCCCCCCCC(=O)O)C(=O)O)NC(=O)C(C)(C)NC(=O)[C@@H](NC(=O)[C@H](CO)NC(=O)[C@H](CCC(C)C)NC(=O)[C@H](CC(=O)O)NC(=O)[C@H](CO)NC(=O)[C@@H](NC(=O)[C@H](Cc1ccccc1)NC(=O)[C@@H](NC(=O)CNC(=O)[C@H](CCC(=O)O)NC(=O)C(C)(C)NC(=O)[C@@H](N)Cc1ccc(O)cc1)[C@@H](C)O)[C@@H](C)CC)[C@@H](C)CC)[C@@H](C)CC)C(=O)N[C@@H](CCC(=O)O)C(=O)N[C@@H](Cc1c[nH]c2ccccc12)C(=O)N[C@@H](CC(C)C)C(=O)N[C@@H](CC(C)C)C(=O)N[C@@H](C)C(=O)N[C@@H](CCC(N)=O)C(=O)NCC(=O)N1CCC[C@H]1C(=O)N[C@@H](CO)C(=O)N[C@@H](CO)C(=O)NCC(=O)N[C@@H](C)C(=O)N1CCC[C@H]1C(=O)N1CCC[C@H]1C(=O)N1CCC[C@H]1C(=O)N[C@@H](CO)C(N)=O, Synthetic peptide, 39 residues) [SEQ ID NO: 34] | 195 | 0.00022 | 0.0335 | > 10 | 0.5 | 112
